Measured values: US20130022605A1 (published 2013)
Where a chain is given by its changes, count along the chain named.

T1: human TNFR1 (human p55 TNF receptor) (human, UniProt P19438 30-211, limits assumed)
T1 construct: also called TAR2; human TNF receptor 1
T1 sequence: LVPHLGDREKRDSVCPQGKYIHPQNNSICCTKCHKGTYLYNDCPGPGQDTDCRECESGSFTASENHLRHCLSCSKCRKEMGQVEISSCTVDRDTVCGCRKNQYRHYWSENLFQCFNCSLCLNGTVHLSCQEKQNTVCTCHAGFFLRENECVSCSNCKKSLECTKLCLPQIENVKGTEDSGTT

T2: mouse TNFR1 on L929 cells (mouse, UniProt P25118 30-454)
T2 sequence (looked up): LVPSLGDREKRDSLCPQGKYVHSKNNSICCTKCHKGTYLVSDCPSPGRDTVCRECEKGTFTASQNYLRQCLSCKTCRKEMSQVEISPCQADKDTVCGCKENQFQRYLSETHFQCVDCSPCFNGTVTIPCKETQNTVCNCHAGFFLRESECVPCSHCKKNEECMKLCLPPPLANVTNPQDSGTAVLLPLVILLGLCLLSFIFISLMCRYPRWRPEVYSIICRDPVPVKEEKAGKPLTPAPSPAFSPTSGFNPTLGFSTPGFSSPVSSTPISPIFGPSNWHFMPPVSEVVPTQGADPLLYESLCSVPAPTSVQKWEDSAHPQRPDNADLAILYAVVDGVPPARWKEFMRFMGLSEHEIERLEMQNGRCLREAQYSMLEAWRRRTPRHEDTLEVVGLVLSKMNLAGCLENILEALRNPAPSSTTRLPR

T3: mouse TNFR1 (mouse, UniProt P25118 30-212, limits assumed)
T3 construct: also called murine TNFR1; biotinylated murine TNFR1
T3 sequence: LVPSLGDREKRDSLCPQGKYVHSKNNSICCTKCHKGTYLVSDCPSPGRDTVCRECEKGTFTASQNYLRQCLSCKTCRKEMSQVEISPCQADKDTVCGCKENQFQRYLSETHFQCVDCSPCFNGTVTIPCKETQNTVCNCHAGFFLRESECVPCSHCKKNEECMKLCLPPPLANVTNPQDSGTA

B1: TAR2h-131-8 (other)
chain: EVQLLESGGGLIQPGGSLRLSCAASGFTFAHETMVWVRQAPGKGLEWVSHIDRVGQDTYYADSVKGRFTISRDNSKNTLYLQMNSLRAEDTAVYYCAKLPKRGPWFDYRGQGTLVTVSS
notes: anti-human TNFR1 dAb
B2: TAR2h-35-4 (other)
chain: EVQLLESGGGLVQPGGSLRLSCAASGFTFDAYNMFWFRQAPGKGPEWVSAIGPSGRETYYADSVKGRFTITRDNSKNTLYLQMNSLRAEDTAVYYCAKRYPDFDYWGQGTLVTVSS
notes: anti-human TNFR1 dAb
B3: TAR2h-15-8 (other)
chain: EVRLLESGGGLVQPGGSLRLSCVASGFTFGKSTMTWVRQAPGKGLEWVSHISDDGNSTYYADSVKGRFTISRDNSKNTLYLQMNSLRAEDTAVYYCAKVPILAPRNLFDYWGQGTLVTVSS
notes: anti-human TNFR1 dAb
B4: TAR2m21-23 dimer (other)
VH: EVQLLESGGGLVQPGGSLRLSCAASGFTFNRYSMGWLRQAPGKGLEWVSRIDSYGRGTYYEDPVKGRFSISRDNSKNTLYLQMNSLRAEDTAVYYCAKISQFGSNAFDYWGQGTQVTVSSC
B5: TAR2m-19 (other)
chain: EVQLLESGGGLVQPGGSLRLSCAASGFTFRKYDMHWVRQAPGKGLEWVSTISPSGRRTYYADSVKGRFTISRDNSKNTLYLQMNSLRAEDTAVYYCAENLDQVLSFDYWGQGTLVTVSS
notes: anti-mouse TNFR1 dAb
B6: TAR2m-21 (other)
chain: EVQLLESGGGLVQPGGSLRLSCAASGFTFTRYSMGWVRQAPGKGLEWVSRIDSYGRGTYYADSVKGRFTISRDNSKNTLYLQMNSLRAEDTAVYYCAKISQFGSNAFDYWGQGTLVTVSS
B7: TAR2m-21-23 (other)
VH: B6 chain with T30N, V37L, A61E, S63P, T69S, L115Q
B8: TAR2m-21-43 (other)
chain: B6 chain with V37L, Y60D
B9: TAR2m-21-48 (other)
chain: B6 chain with V12I, V37L, Y60D, A61T, K76R
B10: TAR2m-21-07 (other)
chain: B6 chain with T30S, Y32C, V37L, Q101K
B11: TAR2m-21-06 (other)
chain: B6 chain with V37I
B12: TAR2m-21-17 (other)
chain: B6 chain with L115V
B13: TAR2m-21-10 (other)
chain: B6 chain with V37L
B14: HEL4 (other)
VH: EVQLLESGGGLVQPGGSLRLSCAASGFRISDEDMGWVRQAPGKGLEWVSSIYGPSGSTYYADSVKGRFTISRDNSKNTLYLQMNSLRAEDTAVYYCASALEPLSEPLGFWGQGTLVTVSS
notes: VH dAb
B15: TAR2m-20 (other)
chain: EVQLLESGGGLVQPGGSLRLSCAASGFTFGSYSMSWVRQAPGKGLEWVSGIDNGGHSTYYADSVKGRFTISRDNSKNTLYLQMNSLRAEDTAVYYCAKRSSGLPFPFDYWGQGTLVTVSS
notes: anti-mouse TNFR1 dAb

Biological target: T1, human TNFR1 (human p55 TNF receptor)
Test: SPR on biotinylated TNFR1, competition with chimeric TNFR1
Method: This example describes a method that was used to determine the domain specificity of dAbs that bind TNFR1. […] If the dAb is pre-incubated and equilibrated with a chimeric molecule that comprises the domain(s) of TNFR1 that the particular dAb binds, then flow of this mixture over the TNFR1 surface will produce a smaller SPR signal relative to the dAb alone.
Once the optimum anti-TNFR1 dAb concentration was determined, anti-TNFR1 dAb/chimeric TNFR1 mixes were set up. Mixes were set up such that the final concentration of anti-TNFR1 dAb was identical to the optimal concentration determined previously. Reactions were typically set up in 100 μl volumes containing 50 microliters of a 2× concentrate of anti-TNFR1 dAb, 40 microliters of Biacore buffer and 10 microliters of neat, purified chimeric protein. Typical concentrations for the final mix were about 10-100 μM of chimeric protein and about 10-100 nM anti-TNFR1 dAb. Mixtures were allowed to equilibrate for 30 minutes at room temperature.

Row | Binder | binding result
1 | B1 | binds
2 | B2 | binds
3 | B3 | binds

Biological target: T2, mouse TNFR1 on L929 cells
Test: cell-based or functional assay

Row | Binder | fold decrease in ND50 of the dimer against the monomer [fold]
4 | B4 | ~10

Biological target: T2, mouse TNFR1 on L929 cells
Test: cell-based or functional assay
Remark: another data set of the same source

Row | Binder | L929 Cell Assay, Activity (IC50) [nM]
5 | B5 | 10000
6 | B6 | 400
7 | B7 | 1
8 | B8 | 6
9 | B9 | 6
10 | B10 | 10
11 | B11 | 100
12 | B12 | 300
13 | B13 | 30

Biological target: T4, hen egg lysozyme (hen, UniProt P00698 19-147)
T4 construct: also called HEL
T4 sequence (P00698 19-147): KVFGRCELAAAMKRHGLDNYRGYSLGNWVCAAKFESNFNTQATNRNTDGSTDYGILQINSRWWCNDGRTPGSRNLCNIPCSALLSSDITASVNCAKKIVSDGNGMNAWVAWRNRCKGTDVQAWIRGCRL
Test: selection from a dAb library

Row | Binder | binding result
14 | B14 | binds

Biological target: T3, mouse TNFR1
Test: receptor binding assay

Row | Binder | IC50 [nM]
15 | B5 | 2000
16 | B15 | 150
